T1: Recombinant Human IL-17 (human, UniProt Q16552 20-155, limits assumed)
T1 sequence (looked up): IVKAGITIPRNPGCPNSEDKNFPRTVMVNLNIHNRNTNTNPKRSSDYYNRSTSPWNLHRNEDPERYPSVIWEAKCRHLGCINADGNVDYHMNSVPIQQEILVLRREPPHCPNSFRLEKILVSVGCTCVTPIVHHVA


Tests used:
Recombinant Human IL-13 [1] = target: T2, Recombinant Human IL-13 (human, UniProt P35225 35-146, limits assumed); assay: cell-based or functional assay
Recombinant Human IL-17 [2] = target: T1, Recombinant Human IL-17; assay: cell-based or functional assay
Recombinant Human IL-17 [3] = target: T1, Recombinant Human IL-17; assay: SPR (Biacore)
Protocol: (§1) The BIACORE assay (Biacore, Inc, Piscataway, N.J.) determined the affinity of antibodies or DVD-Ig with kinetic measurements of on-rate and off-rate constants. Binding of antibodies or DVD-Ig proteins to a target antigen (for example, a purified recombinant target antigen) was determined by surface plasmon resonance-based measurements with a Biacore®1000 or 3000 instrument (Biacore® AB, Uppsala, Sweden) using running HBS-EP (10 mM HEPES [pH 7.4], 150 mM NaCl, 3 mM EDTA, and 0.005% surfactant P20) at 25° C. All chemicals were obtained from Biacore® AB (Uppsala, Sweden) or otherwise from a different source as described in the text. For example, approximately 5000 RU of goat anti-mouse IgG, (Fcγ), fragment specific polyclonal antibody (Pierce Biotechnology Inc, Rockford, Ill.) diluted in 10 mM sodium acetate (pH 4.5) was directly immobilized across a CM5 research grade biosensor chip using a standard amine coupling kit according to manufacturer's instructions and procedures at 25 μg/ml. Unreacted moieties on the biosensor surface were blocked with ethanolamine. Modified carboxymethyl dextran surface in flowcell 2 and 4 was used as a reaction surface. Unmodified carboxymethyl dextran without goat anti-mouse IgG in flow cell 1 and 3 was used as the reference surface. For kinetic analysis, rate equations derived from the 1:1 Langmuir binding model were fitted simultaneously to association and dissociation phases of all eight injections (using global fit analysis) with the use of Biaevaluation 4.0.1 software. Purified antibodies or DVD-Ig proteins were diluted in HEPES-buffered saline for capture across goat anti-mouse IgG specific reaction surfaces. Antibodies or DVD-Ig proteins to be captured as a ligand (25 μg/ml) were injected over reaction matrices at a flow rate of 5 μl/minute. The association and dissociation rate constants, kₒₙ (M⁻¹s⁻¹) and koff (s⁻¹) were determined under a continuous flow rate of 25 μl/minute. Rate constants were derived by making kinetic binding measurements at different antigen concentrations ranging from 10-200 nM. The equilibrium dissociation constant (M) of the reaction between antibodies or DVD-Ig proteins and the target antigen was then calculated from the kinetic rate constants by the following formula: KD=koff/kₒₙ. Binding was recorded as a function of time and kinetic rate constants were calculated.

Recombinant Human IL-13 [4] = target: T2, Recombinant Human IL-13; assay: SPR (Biacore)
Protocol: as §1

T2 sequence (P35225 35-146 limits assumed): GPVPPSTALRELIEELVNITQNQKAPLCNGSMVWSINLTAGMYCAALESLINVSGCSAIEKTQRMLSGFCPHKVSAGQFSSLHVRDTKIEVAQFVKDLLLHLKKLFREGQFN

| Binder | C-Terminal VD IL13 Neutralization Assay IC50 (Recombinant Human IL-13 [1]) | N-Terminal VD IL17 Neutralization Assay IC50 (Recombinant Human IL-17 [2]) | Kd (Recombinant Human IL-17 [3]) | koff (Recombinant Human IL-17 [3]) | kon (Recombinant Human IL-17 [3]) | Kd (Recombinant Human IL-13 [4]) | koff (Recombinant Human IL-13 [4]) | kon (Recombinant Human IL-13 [4]) | N-Terminal VD IL13 Neutralization Assay IC50 (Recombinant Human IL-13 [1]) | C-Terminal VD IL17 Neutralization Assay IC50 (Recombinant Human IL-17 [2]) |
| --- | --- | --- | --- | --- | --- | --- | --- | --- | --- | --- |
| DVD2155 (bispecific antibody, DVD-Ig; also called DVD2155H; DVD2155L) VH: EVQLVQSGAEVKKPGSSVKVSCKASGGSFGGYGIGWVRQAPGQGLEWMGGITPFFGFADYAQKFQGRVTITADESTTTAYMELSGLTSDDTAVYYCARDPNEFWNGYYSTHDFDSWGQGTTVTVSSASTKGPEVTLRESGPGLVKPTQTLTLTCTLYGFSLSTSDMGVDWIRQPPGKGLEWLAHIWWDDVKRYNPALKSRLTISKDTSKNQVVLKLTSVDPVDTATYYCARTVSSGYIYYAMDYWGQGTLVTVSS VL: EIVLTQSPDFQSVTPKEKVTITCRASQDIGSELHWYQQKPDQPPKLLIKYASHSTSGVPSRFSGSGSGTDFTLTINGLEAEDAGTYYCHQTDSLPYTFGPGTKVDIKRTVAAPDIQMTQSPSSLSASVGDRVTISCRASQDIRNYLNWYQQKPGKAPKLLIFYTSKLHSGVPSRFSGSGSGTDYTLTISSLQPEDIATYYCQQGLTPPLTFGGGTKVEIKR | 1.18 nM | 0.0078 nM | 0.0026 nM | 6.9e-06 s⁻¹ | 2.7e+06 M⁻¹ s⁻¹ | 0.16 nM | 3.8e-05 s⁻¹ | 230000 M⁻¹ s⁻¹ |  |  |
| DVD2157 (bispecific antibody, DVD-Ig; also called DVD2157H; DVD2157L) VH: EVQLVQSGAEVKKPGSSVKVSCKASGGSFGGYGIGWVRQAPGQGLEWMGGITPFFGFADYAQKFQGRVTITADESTTTAYMELSGLTSDDTAVYYCARDPNEFWNGYYSTHDFDSWGQGTTVTVSSASTKGPEVTLRESGPGLVKPTQTLTLTCTLYGFSLSTSDMGVDWIRQPPGKGLEWLAHIWWDDVKRYNPALKSRLTISKDTSKNQVVLKLTSVDPVDTATYYCARTVSSGYIYYAMDYWGQGTLVTVSS VL: EIVLTQSPDFQSVTPKEKVTITCRASQDIGSELHWYQQKPDQPPKLLIKYASHSTSGVPSRFSGSGSGTDFTLTINGLEAEDAGTYYCHQTDSLPYTFGPGTKVDIKRTVAAPSVFIFPPDIQMTQSPSSLSASVGDRVTISCRASQDIRNYLNWYQQKPGKAPKLLIFYTSKLHSGVPSRFSGSGSGTDYTLTISSLQPEDIATYYCQQGLTPPLTFGGGTKVEIKR | 0.244 nM | 0.0066 nM | 0.018 nM | 2.6e-05 s⁻¹ | 1.5e+06 M⁻¹ s⁻¹ | 0.21 nM | 6.9e-05 s⁻¹ | 330000 M⁻¹ s⁻¹ |  |  |
| DVD2159 (bispecific antibody, DVD-Ig; also called DVD2159H; DVD2159L) VH: EVQLVQSGAEVKKPGSSVKVSCKASGGSFGGYGIGWVRQAPGQGLEWMGGITPFFGFADYAQKFQGRVTITADESTTTAYMELSGLTSDDTAVYYCARDPNEFWNGYYSTHDFDSWGQGTTVTVSSASTKGPSVFPLAPEVTLRESGPGLVKPTQTLTLTCTLYGFSLSTSDMGVDWIRQPPGKGLEWLAHIWWDDVKRYNPALKSRLTISKDTSKNQVVLKLTSVDPVDTATYYCARTVSSGYIYYAMDYWGQGTLVTVSS VL: EIVLTQSPDFQSVTPKEKVTITCRASQDIGSELHWYQQKPDQPPKLLIKYASHSTSGVPSRFSGSGSGTDFTLTINGLEAEDAGTYYCHQTDSLPYTFGPGTKVDIKRTVAAPDIQMTQSPSSLSASVGDRVTISCRASQDIRNYLNWYQQKPGKAPKLLIFYTSKLHSGVPSRFSGSGSGTDYTLTISSLQPEDIATYYCQQGLTPPLTFGGGTKVEIKR | 0.876 nM | 0.0081 nM | 0.0049 nM | 1.2e-05 s⁻¹ | 2.5e+06 M⁻¹ s⁻¹ | 0.2 nM | 5.3e-05 s⁻¹ | 260000 M⁻¹ s⁻¹ |  |  |
| DVD2200 (bispecific antibody, DVD-Ig; also called DVD2200H; DVD2200L) VH: EVQLVQSGAEVKKPGASVKVSCKASGYTFTSYWMHWVRQAPGQGLEWIGNINPKGGSNIYNEKFQGRVTMTRDTSISTAYMELSRLRSDDTAVYYCARLDYFGDSFDLWGQGTTVTVSSASTKGPSVFPLAPEVQLVQSGAEVKKPGESVKISCKASGGSFRSYGISWVRQAPGQGLEWMGGITHFFGITDYAQKFQGRVTITADESTTTAYMELSGLTSDDTAVYYCAREPNDFWNGYYDTHDFDSWGQGTTVTVSS VL: DIQMTQSPSSLSASVGDRVTITCRASQGIRNYLNWYQQKPGKAPKLLIYYASNLEVGVPSRFSGSGSGTDYTLTISSLQPEDFATYYCQQDNRFPYTFGGGTKVEIKRTVAAPEIVLTQSPDFQSVTPKEKVTITCRASQNIGSELHWYQQKPDQSPKLLIKYASHSISGVPSRFSGSGSGTDFTLTINGLEAEDAATYYCHQSDTLPHTFGQGTKVDIKR |  |  | 0.025 nM | 4.6e-06 s⁻¹ | 180000 M⁻¹ s⁻¹ | 0.045 nM | 6e-05 s⁻¹ | 1.3e+06 M⁻¹ s⁻¹ | 0.096 nM | 0.0072 nM |
| DVD2158 (bispecific antibody, DVD-Ig; also called DVD2158H; DVD2158L) VH: EVTLRESGPGLVKPTQTLTLTCTLYGFSLSTSDMGVDWIRQPPGKGLEWLAHIWWDDVKRYNPALKSRLTISKDTSKNQVVLKLTSVDPVDTATYYCARTVSSGYIYYAMDYWGQGTLVTVSSASTKGPSVFPLAPEVQLVQSGAEVKKPGSSVKVSCKASGGSFGGYGIGWVRQAPGQGLEWMGGITPFFGFADYAQKFQGRVTITADESTTTAYMELSGLTSDDTAVYYCARDPNEFWNGYYSTHDFDSWGQGTTVTVSS VL: DIQMTQSPSSLSASVGDRVTISCRASQDIRNYLNWYQQKPGKAPKLLIFYTSKLHSGVPSRFSGSGSGTDYTLTISSLQPEDIATYYCQQGLTPPLTFGGGTKVEIKRTVAAPEIVLTQSPDFQSVTPKEKVTITCRASQDIGSELHWYQQKPDQPPKLLIKYASHSTSGVPSRFSGSGSGTDFTLTINGLEAEDAGTYYCHQTDSLPYTFGPGTKVDIKR |  |  | < 0.05 nM | < 1e-06 s⁻¹ | 20000 M⁻¹ s⁻¹ | 0.086 nM | 0.00014 s⁻¹ | 1.6e+06 M⁻¹ s⁻¹ | 0.131 nM | 0.0998 nM |
| DVD2201 (bispecific antibody, DVD-Ig; also called DVD2201H; DVD2201L) VH: EVQLVQSGAEVKKPGESVKISCKASGGSFRSYGISWVRQAPGQGLEWMGGITHFFGITDYAQKFQGRVTITADESTTTAYMELSGLTSDDTAVYYCAREPNDFWNGYYDTHDFDSWGQGTTVTVSSASTKGPSVFPLAPEVQLVQSGAEVKKPGASVKVSCKASGYTFTSYWMHWVRQAPGQGLEWIGNINPKGGSNIYNEKFQGRVTMTRDTSISTAYMELSRLRSDDTAVYYCARLDYFGDSFDLWGQGTTVTVSS VL: EIVLTQSPDFQSVTPKEKVTITCRASQNIGSELHWYQQKPDQSPKLLIKYASHSISGVPSRFSGSGSGTDFTLTINGLEAEDAATYYCHQSDTLPHTFGQGTKVDIKRTVAAPDIQMTQSPSSLSASVGDRVTITCRASQGIRNYLNWYQQKPGKAPKLLIYYASNLEVGVPSRFSGSGSGTDYTLTISSLQPEDFATYYCQQDNRFPYTFGGGTKVEIKR | 0.092 nM | 0.0116 nM | 0.04 nM | 6.3e-05 s⁻¹ | 1.6e+06 M⁻¹ s⁻¹ | 0.024 nM | 5.7e-05 s⁻¹ | 2.4e+06 M⁻¹ s⁻¹ |  |  |
| DVD2199 (bispecific antibody, DVD-Ig; also called DVD2199H; DVD2199L) VH: EVQLVQSGAEVKKPGESVKISCKASGGSFRSYGISWVRQAPGQGLEWMGGITHFFGITDYAQKFQGRVTITADESTTTAYMELSGLTSDDTAVYYCAREPNDFWNGYYDTHDFDSWGQGTTVTVSSASTKGPEVQLVQSGAEVKKPGASVKVSCKASGYTFTSYWMHWVRQAPGQGLEWIGNINPKGGSNIYNEKFQGRVTMTRDTSISTAYMELSRLRSDDTAVYYCARLDYFGDSFDLWGQGTTVTVSS VL: EIVLTQSPDFQSVTPKEKVTITCRASQNIGSELHWYQQKPDQSPKLLIKYASHSISGVPSRFSGSGSGTDFTLTINGLEAEDAATYYCHQSDTLPHTFGQGTKVDIKRTVAAPSVFIFPPDIQMTQSPSSLSASVGDRVTITCRASQGIRNYLNWYQQKPGKAPKLLIYYASNLEVGVPSRFSGSGSGTDYTLTISSLQPEDFATYYCQQDNRFPYTFGGGTKVEIKR | 0.088 nM | 0.0102 nM | 0.019 nM | 4.4e-05 s⁻¹ | 2.3e+06 M⁻¹ s⁻¹ | 0.026 nM | 3.4e-05 s⁻¹ | 1.3e+06 M⁻¹ s⁻¹ |  |  |
